According to US20090022714A1, “Combination methods of inhibiting tumor growth with a vascular endothelial growth factor receptor antagonist” (ImClone Systems, Inc., priority 2001, published 2009):

Molecular target: chimeric receptor mouse flk-1 (VEGFR-2)/human fms expressed on transfected 3T3 cells (C441) (mouse; human) (UniProt P35918)
Assay: cell-based or functional assay

chimeric receptor mouse flk-1 (VEGFR-2)/human fms expressed on transfected 3T3 cells (C441) (mouse; human), sequence (P35918 other isoform, or with tags, fused parts or gaps mutant limits assumed): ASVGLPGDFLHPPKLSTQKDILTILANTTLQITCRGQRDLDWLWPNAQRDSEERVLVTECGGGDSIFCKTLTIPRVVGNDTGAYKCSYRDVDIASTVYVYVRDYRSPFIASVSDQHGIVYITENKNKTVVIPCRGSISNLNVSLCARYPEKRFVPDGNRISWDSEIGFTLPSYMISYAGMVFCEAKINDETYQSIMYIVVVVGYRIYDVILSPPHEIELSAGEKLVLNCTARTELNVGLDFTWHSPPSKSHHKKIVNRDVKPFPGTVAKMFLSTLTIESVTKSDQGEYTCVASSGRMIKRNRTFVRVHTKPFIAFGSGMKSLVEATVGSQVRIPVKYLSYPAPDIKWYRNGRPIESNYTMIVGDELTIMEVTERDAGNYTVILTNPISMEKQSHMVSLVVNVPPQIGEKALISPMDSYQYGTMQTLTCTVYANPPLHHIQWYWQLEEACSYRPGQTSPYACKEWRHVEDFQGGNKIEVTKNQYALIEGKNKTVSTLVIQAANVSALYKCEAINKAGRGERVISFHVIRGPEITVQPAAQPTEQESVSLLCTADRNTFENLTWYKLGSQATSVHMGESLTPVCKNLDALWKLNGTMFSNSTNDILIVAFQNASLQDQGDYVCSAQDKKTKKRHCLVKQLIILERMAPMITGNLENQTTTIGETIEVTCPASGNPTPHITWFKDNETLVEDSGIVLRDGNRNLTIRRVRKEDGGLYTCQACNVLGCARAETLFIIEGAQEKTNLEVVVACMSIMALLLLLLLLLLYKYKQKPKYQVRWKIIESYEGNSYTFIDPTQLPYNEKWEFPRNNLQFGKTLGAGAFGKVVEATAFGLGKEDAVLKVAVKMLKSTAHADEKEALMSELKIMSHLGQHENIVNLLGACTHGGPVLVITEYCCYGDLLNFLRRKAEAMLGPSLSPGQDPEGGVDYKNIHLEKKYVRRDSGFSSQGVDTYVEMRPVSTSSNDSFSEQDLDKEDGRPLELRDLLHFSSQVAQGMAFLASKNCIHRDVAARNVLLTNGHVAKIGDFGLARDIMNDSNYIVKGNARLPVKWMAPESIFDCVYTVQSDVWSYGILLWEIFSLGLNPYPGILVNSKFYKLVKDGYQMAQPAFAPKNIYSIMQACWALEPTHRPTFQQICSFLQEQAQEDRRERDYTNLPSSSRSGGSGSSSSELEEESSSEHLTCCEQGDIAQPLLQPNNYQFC

B1: rat anti-mouse flk-1 (VEGFR-2) monoclonal antibody DC-101 (antibody, from another filing, rat IgG1, V domains shown)
VH: EVQLVETGGGLVQPGNSLKLSCATSGFIFSTTWMNWIRQTPGKRLEWLAQIEDKSNNYFISYSESVKGRFTISRDDSKSSVYLQMNNLKEEDTAIYYCSWKYRSNYYFDYWGQGVMVTVSS
VL: DIVLTQSPALAVSLEQRATISCKTSQNVDYYGISYLHWYQQKPGQQPKLLIYEGSNLASGIPARFSGSGSGTDFTLTIDPVEADDIVTYYCQQSKDYPYTFGAGTKLELKR
- inhibition of receptor activation by ligand: < 1 µg/mL
- inhibition of receptor activation by ligand, prebound antibody: < 1 µg/mL
- phosphorylation level relative to the fully stimulated receptor control, antibody added with ligand (densitometry): 40%
- phosphorylation level relative to the fully stimulated receptor control, antibody prebound (densitometry): 6%
- phosphorylation of flk-1 (VEGFR-2), competitive antibody titration: > 0.5 µg/mL
